According to patent publication US12421321B2, “Methods for treating fibrodysplasia ossificans progressiva” (Ashibio, Inc., priority 2023, dated 2025):
Read-outs that look alike come from different tables or passages of the source.

Experiments:
MMP-9 [1] = molecular target: T1, MMP-9 (Homo sapiens, UniProt P14780); conditions: read-out: Ki against MMP-9, cited from earlier work
Target sequence in this assay (P14780 94-707): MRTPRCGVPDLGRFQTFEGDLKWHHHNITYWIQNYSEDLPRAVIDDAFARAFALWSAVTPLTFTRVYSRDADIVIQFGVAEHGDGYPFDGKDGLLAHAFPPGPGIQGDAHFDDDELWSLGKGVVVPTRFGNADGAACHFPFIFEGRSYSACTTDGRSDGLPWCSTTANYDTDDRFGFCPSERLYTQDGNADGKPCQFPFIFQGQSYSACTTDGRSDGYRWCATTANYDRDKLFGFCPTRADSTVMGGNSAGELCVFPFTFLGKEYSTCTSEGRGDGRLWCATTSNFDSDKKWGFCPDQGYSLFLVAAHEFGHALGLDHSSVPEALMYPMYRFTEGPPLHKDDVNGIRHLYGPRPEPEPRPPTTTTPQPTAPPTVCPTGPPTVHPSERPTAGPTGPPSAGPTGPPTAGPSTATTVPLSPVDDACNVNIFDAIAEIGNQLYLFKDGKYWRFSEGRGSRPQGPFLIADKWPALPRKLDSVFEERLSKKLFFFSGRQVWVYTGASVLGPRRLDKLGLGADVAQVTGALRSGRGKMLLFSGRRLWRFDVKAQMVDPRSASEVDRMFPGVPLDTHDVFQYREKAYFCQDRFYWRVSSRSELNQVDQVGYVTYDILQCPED

[2] = system: mouse model of multiple sclerosis; conditions: cited from earlier work
pro-MMP-9 [3] = molecular target: T2, pro-MMP-9 (Homo sapiens, UniProt P14780, Q279R/R574P); conditions: cited from earlier work
T2 construct: Human MMP-9 protein (without)
T2 sequence (P14780 20-707 Q279R/R574P): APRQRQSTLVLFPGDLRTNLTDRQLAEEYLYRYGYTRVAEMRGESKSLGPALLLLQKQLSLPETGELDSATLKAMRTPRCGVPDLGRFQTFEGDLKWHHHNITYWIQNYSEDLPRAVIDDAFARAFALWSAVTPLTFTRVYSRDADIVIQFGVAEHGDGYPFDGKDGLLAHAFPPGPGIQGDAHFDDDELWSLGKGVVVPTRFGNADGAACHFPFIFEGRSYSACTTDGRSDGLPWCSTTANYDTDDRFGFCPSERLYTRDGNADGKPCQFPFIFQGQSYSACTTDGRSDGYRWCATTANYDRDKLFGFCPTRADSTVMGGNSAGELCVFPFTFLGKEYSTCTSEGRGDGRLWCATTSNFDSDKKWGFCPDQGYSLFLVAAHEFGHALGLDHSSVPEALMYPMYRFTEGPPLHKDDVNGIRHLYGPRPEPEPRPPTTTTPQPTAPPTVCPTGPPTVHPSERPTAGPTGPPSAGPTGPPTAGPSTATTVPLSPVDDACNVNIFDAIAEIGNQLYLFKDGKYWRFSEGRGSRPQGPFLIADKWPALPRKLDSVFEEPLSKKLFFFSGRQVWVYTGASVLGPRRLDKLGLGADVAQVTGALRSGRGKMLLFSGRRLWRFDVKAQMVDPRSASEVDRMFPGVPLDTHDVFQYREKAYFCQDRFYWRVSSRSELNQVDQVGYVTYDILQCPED

HT1080 cells = conditions: cited from earlier work
[4] = in vivo; cited from earlier work
MDA-MB-435 = MDA-MB-435 mouse models; cited from earlier work
[5] = system: fibrodysplasia ossificans progressiva; conditions: in vivo; cited from earlier work
[6] = Pooled safety analysis of double-blind placebo-controlled trials, subcutaneous andecaliximab monotherapy, non-oncologic conditions; type: in vivo, human; conditions: for Participants with TEAE assessed as related to study drug: double-blind period
Procedure: A pooled analysis was conducted of all safety data from prior randomized, double-blind, placebo-controlled clinical trials where andecaliximab was administered subcutaneously as a monotherapy in non-oncologic conditions.
The pooled safety analysis consisted of 347 patients enrolled in double-blind (DB) placebo-controlled trials [age 18-78 yrs, median duration of treatment: DB=8 wk; DB+ open label extension (OLE)=17 wk; max 75 wk]. During the DB treatment period, treatment-emergent adverse event (TEAE) assessed as related to study drug occurred in 19 (17.8%) receiving 150 mg Q2W, 23 (20.2%) receiving 150 mg QW, 13 (22.4%) receiving 300 mg QW, none of those receiving 600 mg andecaliximab QW, and 20 participants (22.0%) received a placebo. Treatment-related TEAEs more common with andecaliximab compared with placebo (difference of >1 percentage point) were injection site erythema (2.1% versus 1.1%), headache (1.4% versus 0%), anemia (1.1% versus 0%), and injection site pain (1.1% versus 0%).

MMP-9 [7] = molecular target: T1, MMP-9; conditions: cited from earlier work
Target sequence in this assay (P14780 107-707 limits assumed): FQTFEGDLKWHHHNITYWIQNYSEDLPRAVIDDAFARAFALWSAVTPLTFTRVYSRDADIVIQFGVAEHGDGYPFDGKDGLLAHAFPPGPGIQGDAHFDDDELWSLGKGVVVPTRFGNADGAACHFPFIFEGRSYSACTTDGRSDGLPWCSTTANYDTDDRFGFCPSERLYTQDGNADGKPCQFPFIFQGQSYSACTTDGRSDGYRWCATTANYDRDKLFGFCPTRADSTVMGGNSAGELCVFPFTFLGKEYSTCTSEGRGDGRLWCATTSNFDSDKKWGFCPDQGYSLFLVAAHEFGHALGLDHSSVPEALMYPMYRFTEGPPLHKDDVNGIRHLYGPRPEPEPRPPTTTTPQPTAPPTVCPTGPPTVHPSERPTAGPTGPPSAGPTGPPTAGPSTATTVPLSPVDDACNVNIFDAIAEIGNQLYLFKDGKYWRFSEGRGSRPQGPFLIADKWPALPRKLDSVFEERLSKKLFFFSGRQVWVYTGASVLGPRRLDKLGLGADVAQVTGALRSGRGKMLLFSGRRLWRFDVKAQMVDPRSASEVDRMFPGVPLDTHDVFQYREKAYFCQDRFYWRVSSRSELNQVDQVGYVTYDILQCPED

pro-MMP-9 [8] = molecular target: T2, pro-MMP-9; conditions: cited from earlier work; remark: listed apart in the source
pro-MMP-9 [9] = molecular target: T2, pro-MMP-9; conditions: read-out: IC50, activation of MMP-9 from human pro-MMP-9; cited from earlier work
[10] = human, in vivo; cited from earlier work
heterotopic ossification = assay: Inducible FOP mouse model (Acvr1 R206H, tamoxifen plus cardiotoxin), HO volume by micro-CT; type: in vivo, mice; conditions: 30 mg/kg loading, then 15 mg/kg IP; micro CT 14-24 days post-injury
Procedure: FIG. 1 is a plot showing heterotopic ossification (HO) in an inducible mouse model of FOP having the R206H mutation (Acvr1[R206H]FIEx/+, Gt(ROSA26)SorCreERT2/+) treated with a control vehicle or AB0046 antibody (murine surrogate of andecaliximab that recapitulates MMP-9 inhibitory activity). The induction of disease occurred via tamoxifen (75 mg/kg×7 days, IP) and cardiotoxin injection on day 0 (10 μM, 100 μL) in the right gastrocnemius muscle. Dosing occurred at 30 mg/kg three days prior to injury (loading dose to address initial target-mediated drug disposition), then 15 mg/kg on days 0 and 3, or 15 mg/kg continuing twice per week after day […]. Ex vivo quantification of HO at the injury site was assessed using high-resolution micro CT and analyzed using 3D morphometry.
As described in Hatsell et al (Science Translational Medicine 2015), a knock-in transgenic model (Acvr1[R206H]FIEx/+; Gt(ROSA26)SorCreERT2/+) is used for these studies. […]
Faxitron images (medio-lateral view) of the collected entire right and left hindlimbs from all animals were performed (ex vivo) to document the presence of ectopic bone. Images were assessed qualitatively.
The effect of the anti-MMP-9 antibody, AB0046, on bone formation in the mouse model was evaluated ex vivo at the end of the in-life period. […]

[11] = system: colorectal carcinoma xenograft; conditions: surgical orthotopic xenograft model of colorectal carcinoma; cited from earlier work
[12] = pooled andecaliximab (placebo 0%)

α1(V)GlyΨ{PO2H—CH2} Val [mep14, 32,Flp15, 33] THPI
Ki (MMP-9 [1]; 25° Celsius): 90.6 nM | Ki (MMP-9 [1]; 37° Celsius): 0.98 nM | Clinical severity and weight loss [2]: effectively reduced clinical severity and weight loss

COc1ccccc1Nc1nc(-c2sc(NC(C)=O)nc2C)cs1 [JNJ0966, N-(2-((2-methoxyphenyl)amino)-4′-methyl-[4,5′-bithiazol]-2′yl) acetamide]
Activation of pro-MMP-9 (pro-MMP-9 [3]): prevents the activation of pro-MMP-9 | Migration of HT1080 cells (HT1080 cells): inhibits the migration of HT1080 cells | Blood-brain barrier penetration [4]: penetrates the blood-brain barrier

CCCc1cc(=O)nc(SCC(=O)Nc2ccc(OC(F)F)cc2)[nH]1 [N-[4-(difluoromethoxy)phenyl]-2-[(4-oxo-6-propyl-1H-pyrimidin-2-yl)sulfanyl]-acetamide]
Tumor growth and metastasis (MDA-MB-435): reduced tumor growth and metastasis

CC1(C)CCC(C)(C)c2cc(Cn3cccn3)c(/C=C/c3ccc(C(=O)O)cc3)cc21 [Palovarotene, palovarotene]
Effect in mouse model of fibrodysplasia ossificans progressiva [5]: shown promise

andecaliximab: anti-MMP-9 recombinant chimeric, humanized antibody; heavy chain SEQ ID NO: 35, light chain SEQ ID NO: 36
Participants with TEAE assessed as related to study drug ([6]; 150 mg Q2W): 17.8% | Participants with TEAE assessed as related to study drug ([6]; 150 mg QW): 20.2% | Participants with TEAE assessed as related to study drug ([6]; 300 mg QW): 22.4% | Participants with TEAE assessed as related to study drug ([6]; 600 mg QW): none | Treatment-related TEAE: anemia [6, 12]: 1.1% | Treatment-related TEAE: headache [6, 12]: 1.4% | Treatment-related TEAE: injection site pain [6, 12]: 1.1% | Treatment-related TEAE: injection site erythema ([6]; pooled andecaliximab (placebo 1.1%)): 2.1% | Kd (MMP-9 [7]): 2 to 6.6 nM | Kd (pro-MMP-9 [8]): 0.008 to 0.043 nM | IC50 (pro-MMP-9 [9]): 0.0082 nM | Safety and tolerability in clinical trials [10]: safe and well-tolerated

B1: AB0046: murine surrogate of andecaliximab that recapitulates MMP-9 inhibitory activity; SEQ ID NO: 33 and 32 (antibody)
heavy: MGWSSIILFLVATATGVHSQVQLQQPGSVLVRPGASVKLSCTASGYTFTSYWMNWVKQRPGQGLEWIGEIYPISGRTNYNEKFKVKATLTVDTSSSTAYMDLNSLTSEDSAVYYCARSRANWDDYWGQGTTLTVSSAKTTPPSVYPLAPGSAAQTNSMVTLGCLVKGYFPEPVTVTWNSGSLSSGVHTFPAVLQSDLYTLSSSVTVPSSTWPSETVTCNVAHPASSTKVDKKIVPRDCGCKPCICTVPEVSSVFIFPPKPKDVLTITLTPKVTCVVVDISKDDPEVQFSWFVDDVEVHTAQTQPREEQFNSTFRSVSELPIMHQDWLNGKEFKCRVNSAAFPAPIEKTISKTKGRPKAPQVYTIPPPKEQMAKDKVSLTCMITDFFPEDITVEWQWNGQPAENYKNTQPIMDTDGSYFVYSKLNVQKSNWEAGNTFTCSVLHEGLHNHHTEKSLSHSPGK
light: MSSAQFLGLLLLCFQGTRCDIQMTQTTSSLSASLGDRVTISCSASQGISNYLNWYQQKPDGTFKLLIYYTSILHSGVPSRFSGSGSGTDYSLTISNLEPEDIATYYCQQYGWLPRTFGGGTKLEIKRADAAPTVSIFPPSSEQLTSGGASVVCFLNNFYPKDINVKWKIDGSERQNGVLNSWTDQDSKDSTYSMSSTLTLTKDEYERHNSYTCEATHKTSTSPIVKSFNRNEC
Heterotopic ossification (HO) at the injury site versus IgG control (heterotopic ossification): reduced HO in mice | Tumor growth and metastasis [11]: reduced tumor growth and metastasis
